Substrate in one data set: p-NP-C2
Conditions: pH 9; 30 °C.

Substrate in the next data set: p-NP-C4
The conditions noted are these: pH 9; 30 °C.

Substrate in the next data set: p-NP-C6
The conditions noted are these: pH 9; 30 °C.

Substrate in the next data set: PET
In words: Proxy for plastic degradation [Released monomer concentration (HPLC/LC-MS) (BHET)]. The conditions noted are these: pH 8.

B1: unnamed (protein)
chain: MALYPSARWVLDRMAERGTRPFNEVPVERARQQFDAMMAGAPRPEVARTEDRTVPGPAGDIPVRIYWPQQQTLPLLLVYFHGGGWIMGSIESHDPTCRAIANVAGCIVVSVGYRLAPEHKFPEPLEDCYAAVRWAEENAASLGADPSLLAVGGDSAGGNLAAAVSLLARDRGGPRLAHQVLAYPVLSHGAAFPSYEENADGYFLTREMMLYCWRQYLRDEKDGDDPYASPLKASELSGLPTATIITAEHDPLRDEAEAYGVRLAQAGVPNYCLRYVGMIHGFLSLDNLLPPGRHALWSVATGLRLAATETHKRA
A word on the Km: it is the concentration of substrate that gives half-maximal velocity. Usually kcat stands for the number of substrate molecules converted per active site and unit of time at saturation. By kcat/Km is commonly meant the second-order rate constant that governs catalysis at low substrate concentration. Take B1: in the data set with p-NP-C2, the Km worked out at 50 µM, the kcat was determined as 42 s⁻¹ and the kcat/Km worked out at 839000 M⁻¹ s⁻¹. Also, in the data set with p-NP-C4, the Km was found to be 60 µM, the kcat is 66.2 s⁻¹ and the kcat/Km turned out to be 1.1e+06 M⁻¹ s⁻¹. For the same protein, in the data set with p-NP-C6, the Km amounted to 40 µM, the kcat is 1.45 s⁻¹ and the kcat/Km came out at 36200 M⁻¹ s⁻¹. Besides, the “Proxy for plastic degradation” value in the data set with PET was found to be 0.126 mM.

B2: unnamed (protein)
chain: MALDPGAAALLQQMAQAGVPPFNQMTVQQARQSMTGLAGTAPKYPVAKVEDRTIPGPAGQIPVRIYWPISGQKVGLVVYYHGGGWVICDLETHDGTCRQLANASDCIVMSVDYRLAPEHKFPAAVEDCYAAAAWAAENAATFGVDPSRLVVAGDSAGGNLAAVVALLAKERGGPRLAHQVLIYPVTDYSFDRPSYRENAEGYLLTRDAMEWFWRHYLNSDADGQNPLASPLRAPDLRGLPSATVITAEYDPLRDEGEAYAQRLMEAGVPTTCVRYLGQIHGFVTLEHVLPAGRQALLALGATIKGVLTGALGGQPAAA
As for B2, in the data set with p-NP-C2, the Km amounted to 220 µM, the kcat worked out at 57.1 s⁻¹ and the kcat/Km turned out to be 260000 M⁻¹ s⁻¹. Moreover, in the data set with p-NP-C4, the Michaelis constant (Km) was 80 µM, the kcat came to 8.77 s⁻¹ and the kcat/Km is 110000 M⁻¹ s⁻¹. Moreover, in the data set with p-NP-C6, the Km was 90 µM, the kcat was determined as 0.318 s⁻¹ and the kcat/Km came to 3530 M⁻¹ s⁻¹. The “Proxy for plastic degradation” value with PET stood at 0.075 mM.

(Values after the PETadex activity labels (doi:10.1128/aem.01704-22).)
